According to paper PMC5352318, “Carcinoma-risk variant of EBNA1 deregulates Epstein-Barr Virus episomal latency”:

B1: FR single EBNA1 dimer site (SPR) (dsDNA)
DNA 1: GGGAAGCATATGCTTCCC
DNA 2: GGGAAGCATATGCTTCCC

Tests used:
[1] = target: T1, B95-8 EBNA1 DBD (Epstein-Barr virus (strain B95-8)) (UniProt P03211); test: SPR; conditions: SPR (Biacore T200, SA chip): 20 mM Tris pH 8.0, 250 mM NaCl, 5 mM beta-mercaptoethanol, 1 mM MgCl2, EBNA1 0-200 nM; temperature not stated. Crystals: 0.2 M …
T1 sequence: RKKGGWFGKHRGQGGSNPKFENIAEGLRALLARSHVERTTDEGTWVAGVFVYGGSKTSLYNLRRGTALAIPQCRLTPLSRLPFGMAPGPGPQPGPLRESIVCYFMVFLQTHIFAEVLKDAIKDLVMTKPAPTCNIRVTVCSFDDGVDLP

B95-8 EBNA1 DBD = B95-8 EBNA1 DBD (Epstein-Barr virus (strain B95-8), UniProt P03211 459-607); test: SPR; 1 mM Mg2+; range given for both proteins, exact value in Fig 2B; SPR (Biacore T200, SA chip): 20 mM Tris pH 8.0, 250 mM NaCl, 5 mM beta-mercaptoethanol, 1 mM MgCl2, EBNA1 0-200 nM; temperature not stated. Crystals: 0.2 M ammonium acetate, 0.15 M Mg acetate, 0.05 M Hepes pH 7.0, 5% PEG 4000; conditions: protein: recombinant; tags: His6-SUMO tag, cleaved; chain copies: 2; label: 5' biotin; self-complementary 18-mer

Molecule	Kd [1] [nM]	Kd (B95-8 EBNA1 DBD) [nM]
CGATAGCATATGCTTCCCGTTGGGTAACATATGCTATTG (double strand) [DS 3+4 (two EBNA1 dimer sites)]	11.9	–
B1	–	~16.5
